In this assay the target is E. cloacae Cap2 C109A/C548A (catalytically dead), untagged (Enterobacter cloacae). Nature of the assay: cryo-EM structure.

For the substance “E. cloacae Cap2 C109A/C548A (catalytically dead), untagged (enzyme)”, the stoichiometry N is 2.

By stoichiometry N is commonly meant a count of units in the complex or per binding partner.
